Assays:
[1] = target: Cp(-10)149d (recombinant HBV e-antigen, residues (-10)-149, C48A, C107A, G123A; dimer) (Hepatitis B virus) (UniProt P03147); test: AUC
AUC = target: the molecule itself; test: AUC

With “Cp(-10)149d (recombinant HBV e-antigen, residues (-10)-149, C48A, C107A, G123A; dimer) (from UniProt P03147 1-149) (natural protein)” the stoichiometry N [1] was 2.

B1: Cp149d (HBV capsid protein residues 1-149, C48A, C107A, G123A; dimer) (domain or fragment)
chain: MDIDPYKEFGATVELLSFLPSDFFPSVRDLLDTAAALYRDALESPEHASPHHTALRQAILCWGDLMTLATWVGTNLEDPASRDLVVSYVNTNVGLKFRQLLWFHISALTFGRETVLEYLVSFAVWIRTPPAYRPPNAPILSTLPETTVV
For B1, the “stoichiometry N” value (AUC) was 2.
